Source: patent US9187525B2, “Methods of treating ophthalmic diseases using NPR-B agonists” (Shire Orphan Therapies GmbH, dated 2015)
Numbered stars: 1 amine (or outer) side, 2 acyl side, 3 side chain; on linkers, the order of the positions; unused ones are H or OH. Square brackets hold non-standard residues; d marks the D form. * marks the point of attachment. Ebe = (R)-2-amino-3-(methylsulfanyl)propanoic acid, CSC[C@H](N[*:1])C(=O)[*:2]; 6014 = (E)-dodec-2-enoic acid, CCCCCCCCC/C=C/C(=O)*; Pro(trans-4-F) = O=C(O)[C@@H]1C[C@@H](F)CN1; Phe(4-Br) = N[C@@H](Cc1ccc(Br)cc1)C(=O)O; Dodecenoyl(5Z) = CCCCCC/C=C\CCCC(=O)*; Hyp = O=C(O)[C@@H]1C[C@@H](O)CN1; NMeF = CN[C@@H](Cc1ccccc1)C(=O)O; tBuAla = CC(C)(C)C[C@H](N)C(=O)O; dAgb = N=C(N)NCC[C@@H](N)C(=O)O; dAgp = N=C(N)NC[C@@H](N)C(=O)O; KM‑116‑167 = not defined here; NMeL = CN[C@@H](CC(C)C)C(=O)O; NMeK = CN[C@@H](CCCCN)C(=O)O; Tle = CC(C)(C)[C@H](N)C(=O)O; Lauroyl = CCCCCCCCCCCC(=O)*; dDab = NCC[C@@H](N)C(=O)O; NMeA = CN[C@@H](C)C(=O)O; Octanoyl = CCCCCCCC(=O)*; 6054 = not defined here; Nva = CCC[C@H](N)C(=O)O; Hexanoyl = CCCCCC(=O)*; GABA = NCCCC(=O)O; Sar = CNCC(=O)O

T1: natriuretic peptide receptor-B (human)
T1 chain: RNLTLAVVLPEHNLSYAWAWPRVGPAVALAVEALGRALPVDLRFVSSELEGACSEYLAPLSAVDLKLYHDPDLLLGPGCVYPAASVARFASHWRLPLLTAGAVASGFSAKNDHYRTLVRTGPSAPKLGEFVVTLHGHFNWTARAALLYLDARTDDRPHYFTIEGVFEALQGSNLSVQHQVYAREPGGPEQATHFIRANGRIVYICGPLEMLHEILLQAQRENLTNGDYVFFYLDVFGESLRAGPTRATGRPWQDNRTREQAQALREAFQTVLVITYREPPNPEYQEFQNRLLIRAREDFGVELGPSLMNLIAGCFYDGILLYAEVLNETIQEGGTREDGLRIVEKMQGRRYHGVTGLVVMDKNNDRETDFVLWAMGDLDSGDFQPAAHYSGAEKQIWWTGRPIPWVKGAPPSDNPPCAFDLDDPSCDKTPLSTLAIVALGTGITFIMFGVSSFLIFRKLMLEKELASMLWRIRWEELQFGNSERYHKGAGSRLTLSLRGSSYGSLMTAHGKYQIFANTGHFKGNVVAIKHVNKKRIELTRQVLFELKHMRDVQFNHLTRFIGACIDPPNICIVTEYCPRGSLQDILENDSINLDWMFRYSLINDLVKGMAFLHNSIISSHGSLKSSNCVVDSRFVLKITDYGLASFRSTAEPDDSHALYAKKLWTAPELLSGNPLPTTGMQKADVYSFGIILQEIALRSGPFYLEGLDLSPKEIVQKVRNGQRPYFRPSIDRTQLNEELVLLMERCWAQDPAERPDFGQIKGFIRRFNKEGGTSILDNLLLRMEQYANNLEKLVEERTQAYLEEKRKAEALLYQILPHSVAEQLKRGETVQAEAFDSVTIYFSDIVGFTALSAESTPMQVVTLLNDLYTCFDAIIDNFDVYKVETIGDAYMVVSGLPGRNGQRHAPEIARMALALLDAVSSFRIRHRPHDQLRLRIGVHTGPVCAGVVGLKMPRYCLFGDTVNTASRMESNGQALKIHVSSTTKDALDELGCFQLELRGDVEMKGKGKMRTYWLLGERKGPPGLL


Molecular target: T1, natriuretic peptide receptor-B
Assay: cell-based or functional assay

EC50 group, cGMP in GTM-3 cells [µM]	Binder
≤ 5	Octanoyl-AFRL[Sar][NMeL]DRI-NH2 (not fully specified (some residues); printed as Occ-ala-Phe-arg-Leu-Sar-Nml-Asp-Arg-Ile-NH2) [JAL-1231]
≤ 5	{Dodecenoyl(5Z)}-FRL[Hyp][NMeL]DRI-NH2 (not fully specified (some residues); printed as 6015-Phe-arg-Leu-Hyp-Nml-Asp-Arg-Ile-NH2) [JAL-1238]
≤ 1	Octanoyl-[dA]F[dR]L[Hyp][NMeL]DRI-NH2 [JAL-1086]
≤ 5	Octanoyl-AFRL[Hyp]IDRI-NH2 (not fully specified (some residues); printed as Occ-ala-Phe-arg-Leu-Hyp-Ile-Asp-Arg-Ile-NH2) [JAL-1224]
≤ 1	Octanoyl-AFRL[Hyp][tBuAla]DRI-NH2 (not fully specified (some residues); printed as Occ-ala-Phe-arg-Leu-Hyp-Npg-Asp-Arg-Ile-NH2) [JAL-1225]
≤ 5	Octanoyl-AFRL[NMeK][NMeL]DRI-NH2 (not fully specified (some residues); printed as Occ-ala-Phe-arg-Leu-Nmk-Nml-Asp-Arg-Ile-NH2) [JAL-1229]
≤ 5	6014-FRL[Hyp][NMeL]DRI-NH2 (not fully specified (some residues); printed as 6014-Phe-arg-Leu-Hyp-Nml-Asp-Arg-Ile-NH2) [JAL-1237]
≤ 5	Octanoyl-[dA]F[dAgb]LPLDRI-NH2 [JAL-1121]
≤ 5	6054-FRL[Hyp][NMeL]DRI-NH2 (not fully specified (some residues); printed as 6054-Phe-arg-Leu-Hyp-Nml-Asp-Arg-Ile-NH2; reading uncertain) [JAL-1239]
≤ 5	Octanoyl-[dA]FGL[Pro(trans-4-F)]LDRI-NH2 [JAL-1115]
≤ 5	Octanoyl-AFR[Nva][Hyp][NMeL]DRI-NH2 (not fully specified (some residues); printed as Occ-ala-Phe-arg-Nva-Hyp-Nml-Asp-Arg-Ile-NH2) [JAL-1232]
≤ 5	Octanoyl-AFRLK[NMeL]DRI-NH2 (not fully specified (some residues); printed as Occ-ala-Phe-arg-Leu-Lys-Nml-Asp-Arg-Ile-NH2) [JAL-1228]
≤ 5	Octanoyl-[dA]F[dDab]LPLDRI-NH2 [JAL-1120]
≤ 1	Octanoyl-XF[dR]LP[NMeL]DRI-NH2 (not fully specified (some residues); printed as Occ-pip-Phe-arg-Leu-Pro-Nml-Asp-Arg-Ile-NH2) [JAL-1078]
≤ 15	Octanoyl-AFR[KM‑116‑167][NMeL]DRI-NH2 (not fully specified (some residues); printed as Occ-ala-Phe-arg-(KM-116-167)-Nml-Asp-Arg-Ile-NH2; reading uncertain) [JAL-1159]
≤ 5	Octanoyl-[dA]F[dR]L[Hyp]LDRI-NH2 [JAL-1156_02]

EC50 group, cGMP in GTM-3 cells [µM]	Binder
≤ 15	Hexanoyl-[Ebe][dA]FGLKLDRI-NH2 [JAL-0541]
≤ 1	Octanoyl-[dA][Phe(4-Br)][dR]L[Hyp]LDRI-NH2 [JAL-1116]
≤ 5	Octanoyl-AFR[Ebe][Hyp][NMeL]DRI-NH2 (not fully specified (some residues); printed as Occ-ala-Phe-arg-Ebe-Hyp-Nml-Asp-Arg-Ile-NH2) [JAL-1233]
≤ 5	Octanoyl-[dA][NMeF][dR]LP[NMeL]DRI-NH2 [JAL-1076]
≤ 1	Octanoyl-X[NMeF][dR]LP[NMeL]DRI-NH2 (not fully specified (some residues); printed as Occ-pip-Nmf-arg-Leu-Pro-Nml-Asp-Arg-Ile-NH2) [JAL-1077]
≤ 5	Octanoyl-[dA]F[dAgp]LPLDRI-NH2 [JAL-1122]
≤ 1	Octanoyl-[dA][NMeF][dR]L[Hyp][NMeL]DRI-NH2 [JAL-1085]
≤ 5	Octanoyl-AFRL[Hyp][Ebe]DRI-NH2 (not fully specified (some residues); printed as Occ-ala-Phe-arg-Leu-Hyp-Ebe-Asp-Arg-Ile-NH2) [JAL-1227]
≤ 15	Octanoyl-AFRL[NMeA][NMeL]DRI-NH2 (not fully specified (some residues); printed as Occ-ala-Phe-arg-Leu-Nma-Nml-Asp-Arg-Ile-NH2) [JAL-1230]
≤ 15	Octanoyl-AFRL[Hyp][Tle]DRI-NH2 (not fully specified (some residues); printed as Occ-ala-Phe-arg-Leu-Hyp-Tbg-Asp-Arg-Ile-NH2) [JAL-1226]
≤ 5	Octanoyl-[dA]F[dR]L[Pro(trans-4-F)]LDRI-NH2 [JAL-1114]
≤ 15	XXAFGLKLDRIS (Hex-Ebe-ala-Phe-Gly-Leu-Lys-Leu-Asp-Arg-Ile-Ser-NH2) [JAL-0540]
≤ 5	Lauroyl-FRL[Hyp][NMeL]DRI-NH2 (not fully specified (some residues); printed as 832-Phe-arg-Leu-Hyp-Nml-Asp-Arg-Ile-NH2) [JAL-1214]
≤ 1	Octanoyl-XF[dR]L[Hyp][NMeL]DRI-NH2 (not fully specified (some residues); printed as Occ-pip-Phe-arg-Leu-Hyp-Nml-Asp-Arg-Ile-NH2) [JAL-1087]
≤ 15	Octanoyl-XF[dR]L[Hyp]LDRI-NH2 (not fully specified (some residues); printed as Oct-pip-Phe-arg-Leu-Hyp-Leu-Asp-Arg-Ile-NH2) [JAL-1157_02]
≤ 15	Hexanoyl-[GABA]FGLKLDRIS[Ebe]-NH2 (SMILES CCCCCC(=O)NCCCC(=O)N[C@@H](Cc1ccccc1)C(=O)NCC(=O)N[C@@H](CC(C)C)C(=O)N[C@@H](CCCCN)C(=O)N[C@@H](CC(C)C)C(=O)N[C@@H](CC(=O)O)C(=O)N[C@@H](CCCNC(=N)N)C(=O)N[C@H](C(=O)N[C@@H](CO)C(=O)N[C@@H](CSC)C(N)=O)[C@@H](C)CC) [JAL-0542]
